Results taken from PMC6752053 (Cell, 2019).

Target: the molecule itself
Assay: X-ray diffraction of polymer pellets

B1: His6-Pbp1_LC (C-terminal low-complexity region of Pbp1, a.a.570-722) (domain or fragment, S. cerevisiae, UniProt P53297 570-722, looked up)
chain: NSMGNAVPGMNPAMGMNMGGMMGFPMGGPSASPNPMMNGFAAGSMGMYMPFQPQPMFYHPSMPQMMPVMGSNGAEEGGGNISPHVPAGFMAAGPGAPMGAFGYPGGIPFQGMMGSGPSGMPANGSAMHSHGHSRNYHQTSHHGHHNSSTSGHK
B1: binds.
